{"source": "patent US20250277030A1", "about": "“ANTI-NAPI2B ANTIBODIES AND METHODS OF USE” (Zymeworks BC Inc., priority 2022, published 2025)", "biological_target": "T1, NaPi2b expressed on IGROV-1 cells (Homo sapiens, UniProt O95436)", "T1 construct": "IGROV-1 cells express endogenous NaPi2b at a high level; endogenous in cells; host or cells: IGROV-1", "T1 sequence (O95436 1-690)": "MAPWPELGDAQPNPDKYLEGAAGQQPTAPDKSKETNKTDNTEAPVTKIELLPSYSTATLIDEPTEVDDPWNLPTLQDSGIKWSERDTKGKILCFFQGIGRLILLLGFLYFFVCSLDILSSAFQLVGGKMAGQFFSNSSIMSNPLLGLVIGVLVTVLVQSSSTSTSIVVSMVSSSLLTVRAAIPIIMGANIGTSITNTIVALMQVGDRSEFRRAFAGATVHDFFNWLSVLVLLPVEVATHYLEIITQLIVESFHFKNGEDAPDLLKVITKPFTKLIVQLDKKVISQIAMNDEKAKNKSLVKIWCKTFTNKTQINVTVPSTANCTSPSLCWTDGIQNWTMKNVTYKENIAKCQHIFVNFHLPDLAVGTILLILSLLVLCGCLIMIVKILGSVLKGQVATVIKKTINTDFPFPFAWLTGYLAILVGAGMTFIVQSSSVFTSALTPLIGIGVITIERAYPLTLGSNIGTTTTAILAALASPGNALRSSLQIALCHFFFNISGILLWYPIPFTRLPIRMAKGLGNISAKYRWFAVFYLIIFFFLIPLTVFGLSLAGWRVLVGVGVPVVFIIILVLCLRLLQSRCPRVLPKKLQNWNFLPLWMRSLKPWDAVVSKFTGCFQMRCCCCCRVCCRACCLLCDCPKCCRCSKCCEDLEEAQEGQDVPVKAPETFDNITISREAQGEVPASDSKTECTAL", "assay": "Cellular binding of antibody and ADCs to IGROV-1 cells by flow cytometry (Example 14)", "experimental": "Briefly, HEK293-6e cells were transfected for ˜24 hours to transiently express human NaPi2b, cynomolgus or mouse NaPi2b, at 1 μg of DNA per 1 million cells. Following transfection, 50,000 cells per well were seeded in V-bottom 96-well plates and incubated with 200 nM of primary antibody for 18-24 hours at 4° C. to prevent internalization. Post-incubation, cells were washed and stained with anti-Human IgG Fc AF647 conjugate (Jackson Immuno Research Labs, West Grove, PA, Cat. No. 109-605-098, Lot. No. 124868) at 4° C. for 1 hour. Following staining and washing, fluorescence was detected by flow cytometry on BD LSRFortessa™ Cell Analyzer (BD Biosciences, Franklin Lake, NJ) with 10,000 minimum events collected per well. The AF647/APC-A GeoMean (fluorescence signal geometric mean, proportional to anti-Human AF647 binding) was calculated for the live singlet cell population for each primary antibody using FlowJo™ v8 software (BD Biosciences, Franklin Lake, NJ). The Bmax and Kd of each primary antibody were calculated using GraphPad Prism Version 9 (GraphPad Software, San Diego, CA)\nThe ability of ADCs to bind to cells expressing NaPi2b was assessed. […] Binding to endogenous high NaPi2b-expressing cell lines IGROV-1 and HCC-78 was assessed by flow cytometry according to methods described in Example 5.", "data": [{"substance": "v22277: anti-RSV antibody palivizumab, negative control; has a heterodimeric Fc [reference compound]", "values": [{"measurement": "Binding to IGROV-1 cells, in words", "value": "did not bind"}]}]}
